This passage reports Km, Vmax and Vmax/Km results from ChEMBL document CHEMBL3526031, “Mechanistic studies on the absorption and disposition of scutellarin in humans: selective OATP2B1-mediated hepatic uptake is a likely key determinant for its unique pharmacokinetic characteristics” (Drug Metab Dispos, 2012).

Assay type in all cases: ADME
Substrate in data set [1]: O=c1cc(-c2ccc(O)cc2)oc2cc(O)c(O)c(O)c12
As to the kind of experiment: Drug metabolism assessed as human recombinant UGT1A8-mediated formation of scutellarein-7-O-glucuronide after 25 mins by HPLC/UV analysis.

Substrate in data set [2]: O=c1cc(-c2ccc(O)cc2)oc2cc(O)c(O)c(O)c12
Put plainly: Drug metabolism assessed as human recombinant UGT1A6-mediated formation of scutellarein-7-O-glucuronide after 25 mins by HPLC/UV analysis.

Substrate in data set [3]: O=c1cc(-c2ccc(O)cc2)oc2cc(O)c(O)c(O)c12
As to the kind of experiment: Drug metabolism assessed as human recombinant UGT1A9-mediated formation of scutellarein-7-O-glucuronide after 25 mins by HPLC/UV analysis.

Substrate in data set [4]: O=c1cc(-c2ccc(O)cc2)oc2cc(O)c(O)c(O)c12
As to the kind of experiment: Drug metabolism assessed as human recombinant UGT1A9-mediated formation of scutellarein-6-O-glucuronide after 25 mins by HPLC/UV analysis.

Substrate in data set [5]: O=c1cc(-c2ccc(O)cc2)oc2cc(O)c(O)c(O)c12
Put plainly: Drug metabolism assessed as human recombinant UGT1A3-mediated formation of scutellarein-7-O-glucuronide after 25 mins by HPLC/UV analysis.

Substrate in data set [6]: O=c1cc(-c2ccc(O)cc2)oc2cc(O)c(O)c(O)c12
As to the kind of experiment: Drug metabolism assessed as human recombinant UGT1A7-mediated formation of scutellarein-7-O-glucuronide after 25 mins by HPLC/UV analysis.

Substrate in data set [7]: O=c1cc(-c2ccc(O)cc2)oc2cc(O)c(O)c(O)c12
As to the kind of experiment: Drug metabolism assessed as human recombinant UGT2B7-mediated formation of scutellarein-6-O-glucuronide after 25 mins by HPLC/UV analysis.

Substrate in data set [8]: O=c1cc(-c2ccc(O)cc2)oc2cc(O)c(O)c(O)c12
Put plainly: Drug metabolism assessed as human recombinant UGT1A10-mediated formation of scutellarein-7-O-glucuronide after 25 mins by HPLC/UV analysis.

Substrate in data set [9]: O=c1cc(-c2ccc(O)cc2)oc2cc(O)c(O)c(O)c12
Put plainly: Drug metabolism assessed as human recombinant UGT1A10-mediated formation of scutellarein-6-O-glucuronide after 25 mins by HPLC/UV analysis.

B1: UDP-glucuronosyltransferase 1A8 (Homo sapiens) (protein)
chain: MARTGWTSPIPLCVSLLLTCGFAEAGKLLVVPMDGSHWFTMQSVVEKLILRGHEVVVVMPEVSWQLGKSLNCTVKTYSTSYTLEDLDREFMDFADAQWKAQVRSLFSLFLSSSNGFFNLFFSHCRSLFNDRKLVEYLKESSFDAVFLDPFDACGLIVAKYFSLPSVVFARGIACHYLEEGAQCPAPLSYVPRILLGFSDAMTFKERVRNHIMHLEEHLFCQYFSKNALEIASEILQTPVTAYDLYSHTSIWLLRTDFVLDYPKPVMPNMIFIGGINCHQGKPLPMEFEAYINASGEHGIVVFSLGSMVSEIPEKKAMAIADALGKIPQTVLWRYTGTRPSNLANNTILVKWLPQNDLLGHPMTRAFITHAGSHGVYESICNGVPMVMMPLFGDQMDNAKRMETKGAGVTLNVLEMTSEDLENALKAVINDKSYKENIMRLSSLHKDRPVEPLDLAVFWVEFVMRHKGAPHLRPAAHDLTWYQYHSLDVIGFLLAVVLTVAFITFKCCAYGYRKCLGKKGRVKKAHKSKTH
For the protein B1, in data set [1], the Km was found to be 19 µM, the Vmax is 0.000673 µmol/min/mg and the Vmax/Km stood at 35.4 µL/min/mg.

B2: UDP-glucuronosyltransferase 1A6 (Homo sapiens) (protein)
chain: MACLLRSFQRISAGVFFLALWGMVVGDKLLVVPQDGSHWLSMKDIVEVLSDRGHEIVVVVPEVNLLLKESKYYTRKIYPVPYDQEELKNRYQSFGNNHFAERSFLTAPQTEYRNNMIVIGLYFINCQSLLQDRDTLNFFKESKFDALFTDPALPCGVILAEYLGLPSVYLFRGFPCSLEHTFSRSPDPVSYIPRCYTKFSDHMTFSQRVANFLVNLLEPYLFYCLFSKYEELASAVLKRDVDIITLYQKVSVWLLRYDFVLEYPRPVMPNMVFIGGINCKKRKDLSQEFEAYINASGEHGIVVFSLGSMVSEIPEKKAMAIADALGKIPQTVLWRYTGTRPSNLANNTILVKWLPQNDLLGHPMTRAFITHAGSHGVYESICNGVPMVMMPLFGDQMDNAKRMETKGAGVTLNVLEMTSEDLENALKAVINDKSYKENIMRLSSLHKDRPVEPLDLAVFWVEFVMRHKGAPHLRPAAHDLTWYQYHSLDVIGFLLAVVLTVAFITFKCCAYGYRKCLGKKGRVKKAHKSKTH
Regarding B2, in data set [2], the Km came out at 27 µM, the Vmax is 0.00167 µmol/min/mg and the Vmax/Km stood at 62 µL/min/mg.

B3: UDP-glucuronosyltransferase 1A9 (Homo sapiens) (protein)
chain: MACTGWTSPLPLCVCLLLTCGFAEAGKLLVVPMDGSHWFTMRSVVEKLILRGHEVVVVMPEVSWQLGRSLNCTVKTYSTSYTLEDLDREFKAFAHAQWKAQVRSIYSLLMGSYNDIFDLFFSNCRSLFKDKKLVEYLKESSFDAVFLDPFDNCGLIVAKYFSLPSVVFARGILCHYLEEGAQCPAPLSYVPRILLGFSDAMTFKERVRNHIMHLEEHLLCHRFFKNALEIASEILQTPVTEYDLYSHTSIWLLRTDFVLDYPKPVMPNMIFIGGINCHQGKPLPMEFEAYINASGEHGIVVFSLGSMVSEIPEKKAMAIADALGKIPQTVLWRYTGTRPSNLANNTILVKWLPQNDLLGHPMTRAFITHAGSHGVYESICNGVPMVMMPLFGDQMDNAKRMETKGAGVTLNVLEMTSEDLENALKAVINDKSYKENIMRLSSLHKDRPVEPLDLAVFWVEFVMRHKGAPHLRPAAHDLTWYQYHSLDVIGFLLAVVLTVAFITFKCCAYGYRKCLGKKGRVKKAHKSKTH
On to B3, for which, in data set [3], the Km turned out to be 5.49 µM, the Vmax came out at 0.00463 µmol/min/mg and the Vmax/Km came out at 843 µL/min/mg. In [4], the Km is 10.9 µM, the Vmax was determined as 0.00167 µmol/min/mg and the Vmax/Km is 153 µL/min/mg.

B4: UDP-glucuronosyltransferase 1A3 (Homo sapiens) (protein)
chain: MATGLQVPLPWLATGLLLLLSVQPWAESGKVLVVPIDGSHWLSMREVLRELHARGHQAVVLTPEVNMHIKEENFFTLTTYAISWTQDEFDRHVLGHTQLYFETEHFLKKFFRSMAMLNNMSLVYHRSCVELLHNEALIRHLNATSFDVVLTDPVNLCAAVLAKYLSIPTVFFLRNIPCDLDFKGTQCPNPSSYIPRLLTTNSDHMTFMQRVKNMLYPLALSYICHAFSAPYASLASELFQREVSVVDILSHASVWLFRGDFVMDYPRPIMPNMVFIGGINCANRKPLSQEFEAYINASGEHGIVVFSLGSMVSEIPEKKAMAIADALGKIPQTVLWRYTGTRPSNLANNTILVKWLPQNDLLGHPMTRAFITHAGSHGVYESICNGVPMVMMPLFGDQMDNAKRMETKGAGVTLNVLEMTSEDLENALKAVINDKSYKENIMRLSSLHKDRPVEPLDLAVFWVEFVMRHKGAPHLRPAAHDLTWYQYHSLDVIGFLLAVVLTVAFITFKCCAYGYRKCLGKKGRVKKAHKSKTH
As for B4, in [5], the Km stood at 7.34 µM, the maximal velocity (Vmax) amounted to 0.00178 µmol/min/mg and the Vmax/Km came out at 243 µL/min/mg.

B5: UDP-glucuronosyltransferase 1A7 (Homo sapiens) (protein)
chain: MARAGWTGLLPLYVCLLLTCGFAKAGKLLVVPMDGSHWFTMQSVVEKLILRGHEVVVVMPEVSWQLGRSLNCTVKTYSTSYTLEDQDREFMVFADARWTAPLRSAFSLLTSSSNGIFDLFFSNCRSLFNDRKLVEYLKESCFDAVFLDPFDACGLIVAKYFSLPSVVFARGIFCHYLEEGAQCPAPLSYVPRLLLGFSDAMTFKERVWNHIMHLEEHLFCPYFFKNVLEIASEILQTPVTAYDLYSHTSIWLLRTDFVLEYPKPVMPNMIFIGGINCHQGKPVPMEFEAYINASGEHGIVVFSLGSMVSEIPEKKAMAIADALGKIPQTVLWRYTGTRPSNLANNTILVKWLPQNDLLGHPMTRAFITHAGSHGVYESICNGVPMVMMPLFGDQMDNAKRMETKGAGVTLNVLEMTSEDLENALKAVINDKSYKENIMRLSSLHKDRPVEPLDLAVFWVEFVMRHKGAPHLRPAAHDLTWYQYHSLDVIGFLLAVVLTVAFITFKCCAYGYRKCLGKKGRVKKAHKSKTH
Turning to B5, in [6], the Michaelis-Menten constant (Km) came to 33.3 µM, the maximum rate (Vmax) was determined as 0.000795 µmol/min/mg and the Vmax/Km was 23.9 µL/min/mg.

B6: UDP-glucuronosyltransferase 2B7 (Homo sapiens) (protein)
chain: MSVKWTSVILLIQLSFCFSSGNCGKVLVWAAEYSHWMNIKTILDELIQRGHEVTVLASSASILFDPNNSSALKIEIYPTSLTKTELENFIMQQIKRWSDLPKDTFWLYFSQVQEIMSIFGDITRKFCKDVVSNKKFMKKVQESRFDVIFADAIFPCSELLAELFNIPFVYSLSFSPGYTFEKHSGGFIFPPSYVPVVMSELTDQMTFMERVKNMIYVLYFDFWFEIFDMKKWDQFYSEVLGRPTTLSETMGKADVWLIRNSWNFQFPYPLLPNVDFVGGLHCKPAKPLPKEMEDFVQSSGENGVVVFSLGSMVSNMTEERANVIASALAQIPQKVLWRFDGNKPDTLGLNTRLYKWIPQNDLLGHPKTRAFITHGGANGIYEAIYHGIPMVGIPLFADQPDNIAHMKARGAAVRVDFNTMSSTDLLNALKRVINDPSYKENVMKLSRIQHDQPVKPLDRAVFWIEFVMRHKGAKHLRVAAHDLTWFQYHSLDVIGFLLVCVATVIFIVTKCCLFCFWKFARKAKKGKND
Turning to B6, in [7], the Km stood at 11.5 µM, the Vmax is 8.9e-05 µmol/min/mg and the Vmax/Km came to 7.74 µL/min/mg.

B7: UDP-glucuronosyltransferase 1A10 (Homo sapiens) (protein)
chain: MARAGWTSPVPLCVCLLLTCGFAEAGKLLVVPMDGSHWFTMQSVVEKLILRGHEVVVVMPEVSWQLERSLNCTVKTYSTSYTLEDQNREFMVFAHAQWKAQAQSIFSLLMSSSSGFLDLFFSHCRSLFNDRKLVEYLKESSFDAVFLDPFDTCGLIVAKYFSLPSVVFTRGIFCHHLEEGAQCPAPLSYVPNDLLGFSDAMTFKERVWNHIVHLEDHLFCQYLFRNALEIASEILQTPVTAYDLYSHTSIWLLRTDFVLDYPKPVMPNMIFIGGINCHQGKPLPMEFEAYINASGEHGIVVFSLGSMVSEIPEKKAMAIADALGKIPQTVLWRYTGTRPSNLANNTILVKWLPQNDLLGHPMTRAFITHAGSHGVYESICNGVPMVMMPLFGDQMDNAKRMETKGAGVTLNVLEMTSEDLENALKAVINDKSYKENIMRLSSLHKDRPVEPLDLAVFWVEFVMRHKGAPHLRPAAHDLTWYQYHSLDVIGFLLAVVLTVAFITFKCCAYGYRKCLGKKGRVKKAHKSKTH
As for B7, in [8], the Km was determined as 5.68 µM, the Vmax was determined as 0.000318 µmol/min/mg and the Vmax/Km stood at 55.9 µL/min/mg. Also, in data set [9], the Km was determined as 2.74 µM, the Vmax stood at 3.8e-05 µmol/min/mg and the Vmax/Km is 13.7 µL/min/mg.
